The target in data set [1] is T1, YT521-B YTH domain (Rattus norvegicus, UniProt Q9QY02 347-502). The experiment in a line: ITC; 20 C; 125 uM RNA into 10 uM protein; 25 mM NaH2PO4, 25 mM NaCl, 10 mM beta-mercaptoethanol, pH 7; ITC and NMR titrations at 20 C, structure at 30 C.
The target of data set [2] is T1, YT521-B YTH domain. As to the kind of experiment: ITC; 20 C; 410 uM RNA into 14 uM protein; 25 mM NaH2PO4, 25 mM NaCl, 10 mM beta-mercaptoethanol, pH 7; ITC and NMR titrations at 20 C, structure at 30 C.

As a reminder, the Kd is the free concentration of one partner at which half of the binding sites on the other are occupied at equilibrium, for simple one-to-one binding. A high value points to weaker binding.

UGACAC (ssRNA, N6-methyladenosine at position 3) [5'-UGm6ACAC-3']: the Kd in the data set with YT521-B YTH domain [1] was determined as 100 nM. That is a sub-micromolar value. Turning to UGACAC (ssRNA) [5'-UGACAC-3'], the Kd in the data set with YT521-B YTH domain [2] is 5000 nM.

The values above are taken from article PMC4267619.
